Laboratory results as given in patent US20250332277A1, “PROTEIN TYROSINE KINASE 7 ANTIBODIES AND ANTIBODY-DRUG CONJUGATES” (Eli Lilly and Company, priority 2024, published 2025).

Target: human PTK-7 on cells (OV90-PTK-7, NCI-H446, OVCAR-3) (human) (UniProt Q13308)
Test: cell-based or functional assay

human PTK-7 on cells (OV90-PTK-7, NCI-H446, OVCAR-3) (human), sequence (Q13308 31-1070 limits assumed): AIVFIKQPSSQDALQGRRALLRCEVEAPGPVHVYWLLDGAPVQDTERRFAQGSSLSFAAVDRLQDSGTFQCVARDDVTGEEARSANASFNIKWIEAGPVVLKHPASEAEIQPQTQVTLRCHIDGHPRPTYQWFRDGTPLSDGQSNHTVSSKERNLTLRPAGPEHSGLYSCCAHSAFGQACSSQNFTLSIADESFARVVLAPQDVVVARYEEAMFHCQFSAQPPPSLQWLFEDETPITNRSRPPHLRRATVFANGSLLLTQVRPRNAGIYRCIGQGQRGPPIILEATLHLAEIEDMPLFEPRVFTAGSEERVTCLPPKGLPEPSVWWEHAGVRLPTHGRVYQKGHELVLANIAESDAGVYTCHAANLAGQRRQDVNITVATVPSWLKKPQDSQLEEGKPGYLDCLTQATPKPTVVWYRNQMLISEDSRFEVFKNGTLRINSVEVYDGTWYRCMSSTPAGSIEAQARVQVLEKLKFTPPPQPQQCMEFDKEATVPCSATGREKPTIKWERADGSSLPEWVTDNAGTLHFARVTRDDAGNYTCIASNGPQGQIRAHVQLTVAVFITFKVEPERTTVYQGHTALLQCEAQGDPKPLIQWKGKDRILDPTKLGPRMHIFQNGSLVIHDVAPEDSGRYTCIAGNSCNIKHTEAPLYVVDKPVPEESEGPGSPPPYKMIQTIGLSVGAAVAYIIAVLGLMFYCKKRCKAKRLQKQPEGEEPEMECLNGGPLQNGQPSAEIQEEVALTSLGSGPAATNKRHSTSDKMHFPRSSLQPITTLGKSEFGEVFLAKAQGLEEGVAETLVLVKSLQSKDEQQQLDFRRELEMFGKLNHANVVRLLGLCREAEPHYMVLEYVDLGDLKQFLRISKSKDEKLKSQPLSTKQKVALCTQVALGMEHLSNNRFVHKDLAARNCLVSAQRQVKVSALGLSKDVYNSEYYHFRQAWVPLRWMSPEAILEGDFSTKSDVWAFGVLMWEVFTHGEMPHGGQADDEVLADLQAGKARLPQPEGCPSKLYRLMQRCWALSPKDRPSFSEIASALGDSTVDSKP

B1: Cofetuzumab-Pelidotin (protein, INN chains, looked up)
VH: QVQLVQSGPEVKKPGASVKVSCKASGYTFTDYAVHWVRQAPGKRLEWIGVISTYNDYTYNNQDFKGRVTMTRDTSASTAYMELSRLRSEDTAVYYCARGNSYFYALDYWGQGTSVTVSS
VL: EIVLTQSPATLSLSPGERATLSCRASESVDSYGKSFMHWYQQKPGQAPRLLIYRASNLESGIPARFSGSGSGTDFTLTISSLEPEDFAVYYCQQSNEDPWTFGGGTKLEIK
modifications: pelidotin auristatin payload
Cytotoxicity IC50, OV90-PTK-7 cells (CellTiter-Glo, 5 days): 0.0331 pM
Cytotoxicity IC50, OVCAR-3 cells (CellTiter-Glo, 7 days): 2.53 nM
